Reference: article doi:10.1101/2021.05.11.443575

Legend:
[1] = molecular target: FLAG-PfDdi1 (recombinant full length PfDdi1 with N-terminal FLAG tag) (P. falciparum); experiment: native MS
[2] = molecular target: FLAG-PfDdi1^D262N (recombinant full length catalytically inactive PfDdi1 with N-terminal FLAG tag) (P. falciparum); experiment: native MS

Row | Substance | stoichiometry N [1] | stoichiometry N [2]
1 | FLAG-PfDdi1 (recombinant full length PfDdi1 with N-terminal FLAG tag) (enzyme) | 2 | –
2 | FLAG-PfDdi1^D262N (recombinant full length catalytically inactive PfDdi1 with N-terminal FLAG tag) (enzyme) | – | 2
